Data as given in the supplement of paper PMC10567573.
± gives the standard deviation.

Experiment: protein stability index of a GFP-peptide fusion (GPS, HEK-293T) (PSI 1-6); higher = more stable
[1] = treatment: DMSO, c terminus: native
[2] = treatment: MLN4924 1 uM, 8 h, c terminus: native
[3] = treatment: DMSO, c terminus: a fixed tail appended
[4] = treatment: MLN4924 1 uM, 8 h, c terminus: a fixed tail appended
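Further: 24-mer peptide tiles fused after GFP, lentivirally expressed, FACS-sorted into six equal bins by GFP/DsRed ratio, decoded by Illumina sequencing, PSI is the read-weighted mean bin number.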

Sequence	protein stability index [1]	protein stability index [2]	protein stability index [3]	protein stability index [4]
SVTRSCLLEEEEESGEEAAEAME [POP5]	5.52 ± 0.23	5.49 ± 0.12	–	–
DGRSLSKLNLCEDGPCHKRRASIC [SCARA5]	–	–	3.88 ± 0.33	3.93 ± 0.3
FPKSEQVYLHFLSVVTEDGPEPKD [ZNF232]	–	–	2.58 ± 0.5	3.39 ± 0.56
VLYALRSFDYEQFHELQMQVTASD [PCDHGA10]	–	–	2.26 ± 0.12	2.22 ± 0.27
KQTQCPADPLQLNKALSIILHLIC [FEM1C]	–	–	1.91 ± 0.17	2.21 ± 0.39
VKELGTVMRMLGQTPTKEELDAII [TNNC2]	–	–	3.02 ± 0.29	3.04 ± 0.94
LLAPEAGSHPQQTQKLEEIKENAQ [TOR1AIP2]	–	–	5.44 ± 0.097	5.47 ± 0.25
RQNLSKSWLDVQVSNTYVKQKTSA [TPD52L3]	–	–	3.83 ± 0.28	3.8 ± 0.25
TVLLEEETLEASVGPRETEEKVRD [TOR1AIP2]	–	–	5.59 ± 0.21	5.51 ± 0.24
HCTVKLRQTTGLMEYCLEVIKEND [TRIM9]	–	–	3.07 ± 0.29	3.32 ± 0.37
EKSQLIMQAEAEAASVRMRGEAEA [FLOT1]	–	–	5.04 ± 0.12	4.7 ± 0.26
KLEISTKEVPVVHTETKTITYESS [EPB41L3]	–	–	4.83 ± 0.14	4.64 ± 1
GPGGRRAGEPGHSPADYLRFQDLV [DYRK1B]	–	–	3.07 ± 0.35	3.27 ± 0.6
AKADTTSTVTPVPGQEKGSALEGR [EHMT1]	–	–	5.3 ± 0.24	5.38 ± 0.12
KVQDALQNQSDSLLALAGAVQRLE [SCARA5]	–	–	3.16 ± 0.24	3.29 ± 0.33
QPKKNNVMARTRLVVPNKGYSSLD [FAM219A]	–	–	3.85 ± 0.3	4.07 ± 0.27
DLGDIVARSESVLLHMPQPVNPEL [TRIM43]	–	–	3.67 ± 0.31	3.8 ± 0.25
LDDIYYFGGQNAHNQIAIYAHQPR [FUT8]	–	–	2.87 ± 0.41	2.92 ± 0.39
SVAVPPPPPNRMYPPPPPALPSSA [WASL]	–	–	4.5 ± 0.18	4.53 ± 0.3
LGYQAVPSGSSGSLSTSSSSSPPG [CEBPB]	–	–	4.78 ± 0.12	4.85 ± 0.14
GPCKNCKMIMDTAGNDPYCFVEFH [TIA1]	–	–	2.2 ± 0.31	2.25 ± 0.35
LVGLATAAFGHVQRAEMLPKTSGT [CPOX]	–	–	2.9 ± 0.3	2.91 ± 0.14

Sequence	protein stability index [1]	protein stability index [2]	protein stability index [3]	protein stability index [4]
AQQFALMAPLLFNGCRSGEIFAID [DCAF4]	–	–	2.6 ± 0.72	2.64 ± 0.34
TDGRPQDSVAEVAAKARDTGILIF [MATN2]	–	–	2.86 ± 0.23	3.12 ± 0.34
PPTQLEVNLEEIPGEGLLISWAFT [C2CD2L]	–	–	2.75 ± 0.41	3.01 ± 0.5
DIDMTDYDDVRRCCSSADICPKCW [PRIM1]	–	–	4.8 ± 0.41	4.84 ± 0.25
IRQEFDKLREFLRVEEQAILDAMA [TRIM35]	–	–	2.91 ± 0.31	2.97 ± 0.69
RHCPLPQATFWGLVTPRSWSCHT [SOAT2]	2.55 ± 0.64	2.44 ± 0.62	–	–
GLVLLKHALGSPEKVKACQGQYET [TBC1D10A]	–	–	2.74 ± 0.33	2.94 ± 0.047
LELPEDEEEKKKMEESKAKFENLC [HSP90AB1]	–	–	5.46 ± 0.42	5.3 ± 0.33
GLIISGPILQEGMDEEKLKQLNCV [DLC1]	–	–	3.52 ± 0.2	3.42 ± 0.3
TTFRGHTGGVTALCWDPVQRVLFS [WDFY2]	–	–	2.25 ± 0.23	2.26 ± 0.23
NVSTKEGIHLALVELLKNLTKYPT [INTS4]	–	–	2.53 ± 0.36	2.5 ± 0.25
GDFEEAFDHLQNRLIATKNPEEIR [TENT5C]	–	–	5.16 ± 0.17	5.19 ± 0.21
SSHMNIDITDDCICDLARSIDFNK [PPEF2]	–	–	3.67 ± 0.35	3.89 ± 0.19
MAAVLNAERLEVSVDGLTLSPDPE [ACBD3]	–	–	4.41 ± 0.17	4.59 ± 0.17
EDQWGKGTLTPRMTTDFDLSLDNS [TRIM9]	–	–	4.7 ± 0.18	4.9 ± 0.33
EPLVLYNQNLSNRPSFNRTPIPWL [MYOZ1]	–	–	2.39 ± 0.4	2.44 ± 0.17
AEEWYKSKYADLSDAANRNHEALR [PRPH]	–	–	4.27 ± 0.21	4.43 ± 0.35
ISDNPERYSTNLSNHVDDFTTFRG [EDNRA]	–	–	3.87 ± 0.34	3.95 ± 0.42
LQSFEDLASISTYGFRGEALASIS [MLH1]	–	–	2.78 ± 0.16	2.71 ± 0.3
MPPKFKRHLNDDDVTGSVKSERRN [VAMP4]	–	–	4.79 ± 0.27	4.84 ± 0.18
EELEQEELNKKMTNIRLPNVPSSS [CHMP4C]	–	–	5.27 ± 0.14	5.29 ± 0.15
AAETAAQGPTPRYFTWDEVAQRSG [FADS1]	–	–	4.23 ± 0.23	4.11 ± 0.27

Sequence	protein stability index [1]	protein stability index [2]	protein stability index [3]	protein stability index [4]
WEHSAPQRLPRSAPPGSLVTKVTA [PCDHGC5]	–	–	3.84 ± 0.092	4.02 ± 0.18
KYDMEVRVQKTSKELEDMNQKLFD [TNNI2]	–	–	4.81 ± 0.13	4.73 ± 0.2
VKDDDRLTFHRHPVAQSTDGIRGK [SPSB4]	–	–	4.89 ± 0.25	4.83 ± 0.23
SRETQRTPMNHQKAVNDETCKASH [FBXO34]	–	–	5.06 ± 0.09	5.17 ± 0.19
IHKGEKPYQCSQCSKSYSRRSFLI [ZSCAN9]	–	–	2.46 ± 0.75	2.12 ± 0.42
RNSKASAYCLDQGAEDGDRAILYP [GALNT9]	–	–	4.32 ± 0.3	4.4 ± 0.2
PDTRHPCSLGSSLVADYSDSESE [YJU2B]	5.39 ± 0.1	5.29 ± 0.13	–	–
DFGDMHSYVRSRKRLREEEAARLF [TRIB1]	–	–	3.5 ± 0.3	3.85 ± 0.45
VYYIFERLCAPLFRNIKQEPFSAR [SOAT1]	–	–	2.5 ± 0.71	2.61 ± 0.5
AAETRGAVEGAARTTPSRREITGV [PALM]	–	–	4.86 ± 0.36	5.07 ± 0.18
SDGGQKNKPREHIIDCGDIVWSLA [WSB1]	–	–	3.07 ± 0.36	3.23 ± 0.21
HLVIQNLFEGMIWFLVPISSVICN [CDS1]	–	–	2.96 ± 0.2	3.25 ± 0.41
TILPQEIQSRVQELHPESGEEAVT [ZNF263]	–	–	5.11 ± 0.25	5.33 ± 0.28
KKPPEESTCFERPCFKWYTSPWSE [ADAMTSL2]	–	–	2.67 ± 0.14	2.88 ± 0.42
SPRGPAPGEEKFENLEGVPSVCSE [ZNF263]	–	–	5.41 ± 0.39	5.44 ± 0.29
PEGNILRDRFKSFQRRNMIEPRER [NOP53]	–	–	4.25 ± 0.31	4.29 ± 0.36
GSTLGGSSYSSCYSFGSGGGYGSS [KRT17]	–	–	2.77 ± 0.23	2.98 ± 0.6
RRRSRKKPSGALGSESYKSSAGSA [EHMT1]	–	–	4.86 ± 0.32	5.3 ± 0.073
PGKLFIGGLNTETNEKALEAVFGK [RBMX]	–	–	3.54 ± 0.35	3.69 ± 0.38
LDPQPITDEEEGLIWVVGPVLAVV [PTPRD]	–	–	2.02 ± 0.41	2.42 ± 0.27
NLFCVLRLVVEFPATGGAIPSWQI [PKD2L1]	–	–	3.39 ± 0.28	3 ± 0.5
